Experimental data from article PMC3900686, “Mechanisms of the Scaffold Subunit in Facilitating Protein Phosphatase 2A Methylation” (PLoS ONE, 2014).
One block for each binder: values may come before it.

Tests used:
[1] = target: T1, PP2A scaffold Aα-subunit (full-length A-subunit) (UniProt P30153 1-589); test: assembly and purification of the core enzyme; stable PP2A core enzyme assembled from A-subunit and PP2Ac and purified as previously described [17]; conditions: both partners purified
T1 construct: PP2A scaffold Aα-subunit, 15 HEAT repeats; called the full-length A-subunit; the methods say that residues 9–54 were retained in all constructs, and the FRET fusion is Aα (9–589); The true N-terminal limit may be residue 9; also called scaffold subunit

[2] = target: T2, PP2A catalytic Cα-subunit (free PP2Ac) ( ("mammalian PP2Ac"), UniProt P67775 1-309); test: ITC; 200 µM LCMT-1 (pre-loaded with SAH) titrated to 20 µM PP2A; 25°C; 20 mM Tris pH 7.5, 50 mM NaCl, 50 µM MnCl2; VP-ITC; conditions: both partners purified
T2 construct: PP2A Cα-subunit (PP2Ac); negligible methylation as purified; also called C-subunit; full-length PP2Ac

[3] = target: PP2A core enzyme with the A-subunit mutant A_R183E ( |  ("mammalian …, UniProt P30153 1-589; P67775 1-309, A_R183E); test: cell-based or functional assay
[4] = target: PP2A core enzyme with the A-subunit mutant A_R258E ( |  ("mammalian …, UniProt P30153 1-589; P67775 1-309, A_R258E); test: cell-based or functional assay
[5] = target: T2, PP2A catalytic Cα-subunit (free PP2Ac); test: pull-down; core enzymes assembled on the maltose resin with the immobilized MBP-tagged truncated A-subunits; conditions: both partners purified
[6] = target: the molecule itself; test: SEC; gel filtration chromatography of wild type and mutant A-subunits

B1: PP2Ac with internal deletion of five residues of the PP2Ac-tail (PP2AcΔ294–298) (enzyme, UniProt P67775 1-309, looked up)
chain: MDEKVFTKELDQWIEQLNECKQLSESQVKSLCEKAKEILTKESNVQEVRCPVTVCGDVHGQFHDLMELFRIGGKSPDTNYLFMGDYVDRGYYSVETVTLLVALKVRYRERITILRGNHESRQITQVYGFYDECLRKYGNANVWKYFTDLFDYLPLTALVDGQIFCLHGGLSPSIDTLDHIRALDRLQEVPHEGPMCDLLWSDPDDRGGWGISPRGAGYTFGQDISETFNHANGLTLVSRAHQLVMEGYNWCHDRNVVTIFSAPNYCYRCGNQAAIMELDDTLKYSFLQFDPAPHVTRRTPDYFL
notes: Probably made as the wild-type Cα-subunit (insect cells, His8 tag cleaved); also called shortened PP2Ac
binding result [1]: binds

B2: PP2A-specific leucine carboxyl methyltransferase 1 (LCMT-1) (enzyme, human, UniProt Q9UIC8 1-334, looked up)
chain: MATRQRESSITSCCSTSSCDADDEGVRGTCEDASLCKRFAVSIGYWHDPYIQHFVRLSKERKAPEINRGYFARVHGVSQLIKAFLRKTECHCQIVNLGAGMDTTFWRLKDEDLLPSKYFEVDFPMIVTRKLHSIKCKPPLSSPILELHSEDTLQMDGHILDSKRYAVIGADLRDLSELEEKLKKCNMNTQLPTLLIAECVLVYMTPEQSANLLKWAANSFERAMFINYEQVNMGDRFGQIMIENLRRRQCDLAGVETCKSLESQKERLLSNGWETASAVDMMELYNRLPRAEVSRIESLEFLDEMELLEQLMRHYCLCWATKGGNELGLKEITY
notes: human LCMT-1, cloned into pET15b; For ITC it was pre-loaded with SAH (0.5 mM, 10 min, 37°C)
fold reduction of binding affinity against the core enzyme [2]: ~4 fold
stoichiometry N [2]: < 1
Km of methylation of the PP2A core enzyme by LCMT-1 (3H-SAM), fold increase against the wild-type core enzyme [3]: 1.5 fold
Km of methylation of the PP2A core enzyme by LCMT-1 (3H-SAM), fold increase against the wild-type core enzyme [4]: 2 fold

B4: A-subunit mutant A_D61A/E62K/E100A/E101K (natural protein, UniProt P30153 1-589, looked up)
chain: MAAADGDDSLYPIAVLIDELRNEDVQLRLNSIKKLSTIALALGVERTRSELLPFLTDTIYAKDEVLLALAEQLGTFTTLVGGPEYVHCLLPPLESLATVAKTVVRDKAVESLRAISHEHSPSDLEAHFVPLVKRLAGGDWFTSRTSACGLFSVCYPRVSSAVKAELRQYFRNLCSDDTPMVRRAAASKLGEFAKVLELDNVKSEIIPMFSNLASDEQDSVRLLAVEACVNIAQLLPQEDLEALVMPTLRQAAEDKSWRVRYMVADKFTELQKAVGPEITKTDLVPAFQNLMKDCEAEVRAAASHKVKEFCENLSADCRENVIMSQILPCIKELVSDANQHVKSALASVIMGLSPILGKDNTIEHLLPLFLAQLKDECPEVRLNIISNLDCVNEVIGIRQLSQSLLPAIVELAEDAKWRVRLAIIEYMPLLAGQLGVEFFDEKLNSLCMAWLVDHVYAIREAATSNLKKLVEKFGKEWAHATIIPKVLAMSGDPNYLHRMTTLFCINVLSEVCGQDITTKHMLPTVLRMAGDPVANVRFNVAKSLQKIGPILDNSTLQSEVKPILEKLTQDQDVDVKYFAQEALTVLSLA
notes: PP2A scaffold Aα-subunit, multiple mutant D61A/E62K/E100A/E101K; Probably made as the wild-type A-subunit
binding result [6]: binds

Now from value to binder:

binding result [5]: binds
B3: A-subunit mutant missing HEAT repeats 2–10 (AΔHR2–10, mini-A) (domain or fragment, UniProt P30153 9-589, looked up)
chain: SLYPIAVLIDELRNEDVQLRLNSIKKLSTIALALGVERTRSELLPFIVELAEDAKWRVRLAIIEYMPLLAGQLGVEYFDEKLNSLCMAWLVDHVYAIREAATSNLKKLVEKFGKEWAHATIIPKVLAMSGDPNYLHRMTTLFCINVLSEVCGQDITTKHMLPTVLRMAGDPVANVRFNVAKSLQKIGPILDNSTLQSEVKPILEKLTQDQDVDVKYFAQEALTVLSLA
notes: the FRET fusion is Aα (9–589); source: E. coli DH5α, MBP-tagged, immobilised on maltose resin

binding result [5]: binds
B5: A-subunit mutant missing HEAT repeats 2–8 (AΔHR2–8) (domain or fragment, UniProt P30153 9-589, looked up)
chain: SLYPIAVLIDELRNEDVQLRLNSIKKLSTIALALGVERTRSELLPFIKELVSDANQHVKSALASVIMGLSPILGKDNTIEHLLPLFLAQLKDECPEVRLNIISNLDCVNEVIGIRQLSQSLLPAIVELAEDAKWRVRLAIIEYMPLLAGQLGVEFFDEKLNSLCMAWLVDHVYAIREAATSNLKKLVEKFGKEWAHATIIPKVLAMSGDPNYLHRMTTLFCINVLSEVCGQDITTKHMLPTVLRMAGDPVANVRFNVAKSLQKIGPILDNSTLQSEVKPILEKLTQDQDVDVKYFAQEALTVLSLA
notes: as for B3
